Target: HLA-B*57:01–T3N (human | not stated | HIV-1)
Assay: SPR

## KIR3DL1*001 (similar construct, from insect cells) (from UniProt P43629 22-444) (receptor)
  Kd: 100 µM
